Assay results as given in patent publication US20240034757A1 (OXFORD UNIVERSITY INNOVATION, published 2024).

T1: CCL15_HUMAN (human, UniProt Q16663 22-113)
T1 sequence: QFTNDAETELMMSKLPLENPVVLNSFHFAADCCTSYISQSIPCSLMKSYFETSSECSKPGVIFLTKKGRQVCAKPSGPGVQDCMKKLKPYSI

T2: CCL17_HUMAN (human, UniProt Q92583 24-94)
T2 sequence: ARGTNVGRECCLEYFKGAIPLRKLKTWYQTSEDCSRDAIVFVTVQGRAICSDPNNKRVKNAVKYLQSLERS

T3: CXCL6_HUMAN (human, UniProt P80162 38-114)
T3 sequence: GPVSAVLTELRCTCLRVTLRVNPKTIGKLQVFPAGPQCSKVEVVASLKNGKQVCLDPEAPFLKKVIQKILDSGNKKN

T4: CXCL10_HUMAN (human, UniProt P02778 22-98)
T4 sequence: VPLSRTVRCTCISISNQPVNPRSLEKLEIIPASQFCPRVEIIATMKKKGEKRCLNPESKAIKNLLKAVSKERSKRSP

T5: CXCL4_HUMAN (human, UniProt P02776 32-101)
T5 sequence: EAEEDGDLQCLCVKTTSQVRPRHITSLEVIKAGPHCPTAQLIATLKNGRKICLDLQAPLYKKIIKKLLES

T6: CXCL14_HUMAN (human, UniProt O95715 35-111)
T6 sequence: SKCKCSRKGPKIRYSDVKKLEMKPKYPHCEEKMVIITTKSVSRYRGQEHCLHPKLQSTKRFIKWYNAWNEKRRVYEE

T7: CXCL9_HUMAN (human, UniProt Q07325 23-125)
T7 sequence: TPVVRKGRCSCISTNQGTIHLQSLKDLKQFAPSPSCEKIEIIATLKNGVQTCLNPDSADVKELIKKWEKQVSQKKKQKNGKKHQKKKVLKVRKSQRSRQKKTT

T8: CXCL7_HUMAN (human, UniProt P02775 59-128)
T8 sequence: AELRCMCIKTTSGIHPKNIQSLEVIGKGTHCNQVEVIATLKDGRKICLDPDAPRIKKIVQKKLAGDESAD

T9: CXCL8_HUMAN (human, UniProt P10145 28-99)
T9 sequence: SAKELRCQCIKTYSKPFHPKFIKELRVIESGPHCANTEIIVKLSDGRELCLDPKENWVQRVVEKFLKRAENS

T10: CXCL1_HUMAN (human, UniProt P09341 35-107)
T10 sequence: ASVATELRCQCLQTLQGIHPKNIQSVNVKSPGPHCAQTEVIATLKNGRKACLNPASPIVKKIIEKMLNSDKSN

T11: CXCL2_HUMAN (human, UniProt P19875 35-107)
T11 sequence: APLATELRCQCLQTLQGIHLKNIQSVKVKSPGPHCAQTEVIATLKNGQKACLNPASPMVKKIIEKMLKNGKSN

T12: CXCL11_HUMAN (human, UniProt O14625 22-94)
T12 sequence: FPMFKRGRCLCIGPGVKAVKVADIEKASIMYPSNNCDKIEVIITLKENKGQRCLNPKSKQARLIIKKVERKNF

T13: CXCL5_HUMAN (human, UniProt P42830 41-114)
T13 sequence: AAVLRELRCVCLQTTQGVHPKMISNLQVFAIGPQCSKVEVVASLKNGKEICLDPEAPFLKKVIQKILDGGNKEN

T14: CXCL3_HUMAN (human, UniProt P19876 35-107)
T14 sequence: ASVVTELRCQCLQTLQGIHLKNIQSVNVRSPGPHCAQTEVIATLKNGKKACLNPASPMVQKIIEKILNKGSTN

T15: CXCL13_HUMAN (human, UniProt O43927 23-109)
T15 sequence: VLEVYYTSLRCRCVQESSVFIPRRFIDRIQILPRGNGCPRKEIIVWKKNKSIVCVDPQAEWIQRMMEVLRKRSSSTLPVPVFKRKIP


Tests used:
CCL2_HUMAN = CCL2_HUMAN (human, UniProt P13500 24-99); assay: BLI
CCL15_HUMAN = target: T1, CCL15_HUMAN; assay: BLI
CCL17_HUMAN = target: T2, CCL17_HUMAN; assay: BLI
CXCL6_HUMAN = target: T3, CXCL6_HUMAN; assay: BLI
CXCL12_HUMAN = CXCL12_HUMAN (human, UniProt P48061 22-89); assay: BLI
CXCL10_HUMAN [1] = target: T4, CXCL10_HUMAN; assay: BLI
CXCL4_HUMAN = target: T5, CXCL4_HUMAN; assay: BLI
CXCL14_HUMAN = target: T6, CXCL14_HUMAN; assay: BLI
CXCL9_HUMAN [2] = target: T7, CXCL9_HUMAN; assay: BLI
CXCL7_HUMAN [3] = target: T8, CXCL7_HUMAN; assay: BLI
CXCL8_HUMAN = target: T9, CXCL8_HUMAN; assay: BLI
CXCL1_HUMAN [4] = target: T10, CXCL1_HUMAN; assay: BLI
CXCL2_HUMAN [5] = target: T11, CXCL2_HUMAN; assay: BLI
CXCL11_HUMAN [6] = target: T12, CXCL11_HUMAN; assay: BLI
CXCL5_HUMAN = target: T13, CXCL5_HUMAN; assay: BLI
CXCL3_HUMAN = target: T14, CXCL3_HUMAN; assay: BLI
CXCL13_HUMAN [7] = target: T15, CXCL13_HUMAN; assay: BLI
CXCL10_HUMAN [8] = target: T4, CXCL10_HUMAN; assay: BLI [Cont.) C]
CXCL9_HUMAN [9] = target: T7, CXCL9_HUMAN; assay: BLI [Cont.) C]
CXCL7_HUMAN [10] = target: T8, CXCL7_HUMAN; assay: BLI [Cont.) C]
CXCL1_HUMAN [11] = target: T10, CXCL1_HUMAN; assay: BLI [Cont.) C]
CXCL2_HUMAN [12] = target: T11, CXCL2_HUMAN; assay: BLI [Cont.) C]
CXCL11_HUMAN [13] = target: T12, CXCL11_HUMAN; assay: BLI [Cont.) C]
CXCL13_HUMAN [14] = target: T15, CXCL13_HUMAN; assay: BLI [Cont.) C]

CCL2_HUMAN, sequence (P13500 24-99 limits assumed): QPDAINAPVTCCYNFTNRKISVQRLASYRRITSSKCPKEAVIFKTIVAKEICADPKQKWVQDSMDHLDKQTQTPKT
CXCL12_HUMAN, sequence (P48061 22-89 limits assumed): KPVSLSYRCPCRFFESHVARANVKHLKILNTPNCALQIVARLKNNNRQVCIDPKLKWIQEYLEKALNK

Binder	Kd (CCL2_HUMAN) [nM]	RT (CCL2_HUMAN) [min]	Kd (CCL15_HUMAN) [nM]	RT (CCL15_HUMAN) [min]	Kd (CCL17_HUMAN) [nM]	RT (CCL17_HUMAN) [min]	binding result (CXCL6_HUMAN)	binding result (CXCL12_HUMAN)	binding result (CXCL10_HUMAN [1])	binding result (CXCL4_HUMAN)	binding result (CXCL14_HUMAN)	binding result (CXCL9_HUMAN [2])	binding result (CXCL7_HUMAN [3])	Kd (CXCL8_HUMAN) [nM]	RT (CXCL8_HUMAN) [min]	Kd (CXCL1_HUMAN [4]) [nM]	RT (CXCL1_HUMAN [4]) [min]	RT (CXCL2_HUMAN [5]) [min]	binding result (CXCL11_HUMAN [6])	RT (CXCL5_HUMAN) [min]	further results
P991:G4S:P1156 (designed binder) ENGEGTTQPDYDNSTDYYNYEDFKCTCPAPHLNNTNGTVMKPIGCYYTCNVTRCTAPDTYPCYNLTEHQAKNLTTSPTTLCAVGNCDHGICVPNGTKELCFKAPNLEEGGGGSADDDNELFTVQYCGMNCTKDEGGTWTGCTGKKEGCKCYHESGKNYGLCLSTEYTDFSQYGNPSDSEIEAAKPKRSDTLSH	24.8	4.02	127	0.87	5.8	11.6	no binding	no binding	no binding	no binding	no binding	no binding	no binding	3.56	36.8	5.08	21	2.32	no binding	2.32	Kd (CXCL3_HUMAN): 89.9 nM; RT (CXCL3_HUMAN): 3.28 min; binding result (CXCL13_HUMAN [7]): no binding
P1243:G4S:P1156 (designed binder) RNHTEDNSTEYYDYEEARCACPARHLNNTNGTVLKLLGCHYFCNGTLCTAPDGYPCYNLTAQQVRTLTTYPNTSCAVGVCMKGTCVKNGTMEQCFKTPGGGGSADDDNELFTVQYCGMNCTKDEGGTWTGCTGKKEGCKCYHESGKNYGLCLSTEYTDFSQYGNPSDSEIEAAKPKRSDTLSH																					binding result (CXCL10_HUMAN [8]): no binding (tested: 300 nM); binding result (CXCL9_HUMAN [9]): no binding (tested: 300 nM); binding result (CXCL7_HUMAN [10]): no binding (tested: 300 nM); Kd (CXCL1_HUMAN [11]): 17.4 nM; binding result (CXCL2_HUMAN [12]): no binding (tested: 300 nM); binding result (CXCL11_HUMAN [13]): no binding (tested: 300 nM); binding result (CXCL13_HUMAN [14]): no binding (tested: 300 nM)
P1156:G4S:P991 (designed binder, also called two-warhead evasin) ADDDNELFTVQYCGMNCTKDEGGTWTGCTGKKEGCKCYHESGKNYGLCLSTEYTDFSQYGNPSDSEIEAAKPKRSDTLSHGGGGSENGEGTTQPDYDNSTDYYNYEDFKCTCPAPHLNNTNGTVMKPIGCYYTCNVTRCTAPDTYPCYNLTEHQAKNLTTSPTTLCAVGNCDHGICVPNGTKELCFKAPNLEE	32.1	3.25	166	0.66	7.44	8.6	no binding	no binding	no binding	no binding	no binding	no binding	no binding	1.5	71.3	2.72	30.3	2.89	no binding	3.08	Kd (CXCL3_HUMAN): 61.4 nM; RT (CXCL3_HUMAN): 3.61 min; binding result (CXCL13_HUMAN [7]): no binding
